According to patent US20230348578A1, “CONFORMATION-SPECIFIC ANTIBODIES THAT BIND TAU PROTEIN AND USES THEREOF” (Beth Israel Deaconess Medical Center, Inc., priority 2020, published 2023):

Each binder was assayed against P-tau peptide (wild-type P-tau peptide and its pure cis or cis-locked, and pure trans counterparts) (assay: Biacore (SPR) with P-tau peptide).

Row | Binder | Kd [nM] | Relative KD
1 | Cis-mAb HT13 (mouse-human chimera, control) (antibody, V domains shown) VH: QVQLQQPGAELVKPGASVKMSCKASGYTFTSYWIHWVKQRPGQGLEWIGVIDPSDSYTRYNQKFKGKATLTVDTSSSTAYMQLSSLTSEDSAVYYCTTWEVDYWGQGTTLTVSS VL: DVVMTQTPLSLPVSLGDQASISCRSSQSLVHSDGNTYLHWYLQKPGQSPKLLIYKVSNRFSGVPDRFSGSGSGTDFTLKISRLEAEDLGVYFCSQSTHVPWTFGGGTKLEIK | 1.26 | 1 fold of HT13
2 | Cis-mAb HT4 (humanized) (antibody, V domains shown) VH: QVQLVQSGAEVKKPGASVKVSCKASGYTFTSYWIHWVRQRPGQGLEWIGVIDPSDSYTRYNQKFKGRVTITRDTSASTAYMELSSLRSEDTAVYYCTTWEVDYWGQGTLVTVSS VL: DVVMTQSPLSLPVTLGQPASISCRSSQSLVHSDGNTYLHWYLQKPGQSPQLLIYKVSNRFSGVPDRFSGSGSGTDFTLKISRVEAEDVGVYFCSQSTHVPWTFGGGTKVEIK | 2.42 | 1.92 fold of HT13
3 | Cis-mAb HT5 (humanized) (antibody, V domains shown) VH: QVQLVQSGAELKKPGASVKMSCKASGYTFTSYWIHWVKQRPGQGLEWIGVIDPSDSYTRYNQKFKGRATLTVDTSASTAYMQLSSLTSEDSAVYYCTTWEVDYWGQGTTVTVSS VL: DVVMTQSPLSLPVTLGQPASISCRSSQSLVHSDGNTYLHWYLQKPGQSPQLLIYKVSNRDSGVPDRFSGSGSGTDFTLKISRVEAEDVGVYFCSQSTHVPWTFGGGTKVEIK | 6.91 | 5.48 fold of HT13
4 | Cis-mAb HT6 (humanized) (antibody, V domains shown) VH: QVQLVQSGAEVKKPGASVKMSCKASGYTFTSYWIHWVKQRPGQGLEWIGVIDPSDSYTRYNQKFKGRATLTVDTSASTAYMELSSLRSEDTAVYYCTTWEVDYWGQGTLVTVSS VL: DVVMTQSPLSLPVTLGQPASISCRSSQSLVHSDGNTYLHWYLQKPGQSPQLLIYKVSNRDSGVPDRFSGSGSGTDFTLKISRVEAEDVGVYFCSQSTHVPWTFGGGTKVEIK | 6.48 | 5.14 fold of HT13
5 | Cis-mAb HT7 (humanized) (antibody, V domains shown) VH: QVQLVQSGAEVKKPGASVKVSCKASGYTFTSYWIHWVRQRPGQGLEWIGVIDPSDSYTRYNQKFKGRVTLTVDTSASTAYMELSSLRSEDTAVYYCTTWEVDYWGQGTLVTVSS VL: DVVMTQSPLSLPVTLGQPASISCRSSQSLVHSDGNTYLHWYLQKPGQSPQLLIYKVSNRDSGVPDRFSGSGSGTDFTLKISRVEAEDVGVYFCSQSTHVPWTFGGGTKVEIK | 10.8 | 8.57 fold of HT13
6 | Cis-mAb HT8 (humanized) (antibody, V domains shown) VH: QVQLVQSGAEVKKPGASVKVSCKASGYTFTSYWIHWVRQRPGQGLEWIGVIDPSDSYTRYNQKFKGRVTITRDTSASTAYMELSSLRSEDTAVYYCTTWEVDYWGQGTLVTVSS VL: DVVMTQSPLSLPVTLGQPASISCRSSQSLVHSDGNTYLHWYLQKPGQSPQLLIYKVSNRDSGVPDRFSGSGSGTDFTLKISRVEAEDVGVYFCSQSTHVPWTFGGGTKVEIK | 7.68 | 6.11 fold of HT13
7 | Cis-mAb HT9 (humanized) (antibody, V domains shown) VH: QVQLVQSGAELKKPGASVKMSCKASGYTFTSYWIHWVKQRPGQGLEWIGVIDPSDSYTRYNQKFKGRATLTVDTSASTAYMQLSSLTSEDSAVYYCTTWEVDYWGQGTTVTVSS VL: DVVMTQSPLSLPVTLGQPASISCRSSQSLVHSDGNTYLHWYLQKPGQSPQLLIYKVSNRFSGVPDRFSGSGSGTDFTLKISRVEAEDVGVYYCSQSTHVPWTFGGGTKVEIK | 1.89 | 1.5 fold of HT13
8 | Cis-mAb HT10 (humanized) (antibody, V domains shown) VH: QVQLVQSGAEVKKPGASVKMSCKASGYTFTSYWIHWVKQRPGQGLEWIGVIDPSDSYTRYNQKFKGRATLTVDTSASTAYMELSSLRSEDTAVYYCTTWEVDYWGQGTLVTVSS VL: DVVMTQSPLSLPVTLGQPASISCRSSQSLVHSDGNTYLHWYLQKPGQSPQLLIYKVSNRFSGVPDRFSGSGSGTDFTLKISRVEAEDVGVYYCSQSTHVPWTFGGGTKVEIK | 1.77 | 1.4 fold of HT13
9 | Cis-mAb HT11 (humanized) (antibody, V domains shown) VH: QVQLVQSGAEVKKPGASVKVSCKASGYTFTSYWIHWVRQRPGQGLEWIGVIDPSDSYTRYNQKFKGRVTLTVDTSASTAYMELSSLRSEDTAVYYCTTWEVDYWGQGTLVTVSS VL: DVVMTQSPLSLPVTLGQPASISCRSSQSLVHSDGNTYLHWYLQKPGQSPQLLIYKVSNRFSGVPDRFSGSGSGTDFTLKISRVEAEDVGVYYCSQSTHVPWTFGGGTKVEIK | 3.99 | 3.17 fold of HT13
10 | Cis-mAb HT12 (humanized) (antibody, V domains shown) VH: QVQLVQSGAEVKKPGASVKVSCKASGYTFTSYWIHWVRQRPGQGLEWIGVIDPSDSYTRYNQKFKGRVTITRDTSASTAYMELSSLRSEDTAVYYCTTWEVDYWGQGTLVTVSS VL: DVVMTQSPLSLPVTLGQPASISCRSSQSLVHSDGNTYLHWYLQKPGQSPQLLIYKVSNRFSGVPDRFSGSGSGTDFTLKISRVEAEDVGVYYCSQSTHVPWTFGGGTKVEIK | 3.55 | 2.82 fold of HT13
11 | Cis-mAb HT14 (humanized) (antibody, V domains shown) VH: QVQLVQSGAELKKPGASVKMSCKASGYTFTSYWIHWVKQRPGQGLEWIGVIDPSDSYTRYNQKFKGRATLTVDTSASTAYMQLSSLTSEDSAVYYCTTWEVDYWGQGTTVTVSS VL: DVVMTQSPLSLPVTLGQPASISCRSSQSLVHSDGNTYLNWYLQKPGQSPQLLIYKVSNRFSGVPDRFSGSGSGTDFTLKISRVEAEDVGVYFCSQSTHVPWTFGGGTKVEIK | 30.2 | 24 fold of HT13
12 | Cis-mAb HT15 (humanized) (antibody, V domains shown) VH: QVQLVQSGAEVKKPGASVKMSCKASGYTFTSYWIHWVKQRPGQGLEWIGVIDPSDSYTRYNQKFKGRATLTVDTSASTAYMELSSLRSEDTAVYYCTTWEVDYWGQGTLVTVSS VL: DVVMTQSPLSLPVTLGQPASISCRSSQSLVHSDGNTYLNWYLQKPGQSPQLLIYKVSNRFSGVPDRFSGSGSGTDFTLKISRVEAEDVGVYFCSQSTHVPWTFGGGTKVEIK | 33.4 | 26.5 fold of HT13
13 | Cis-mAb HT1 (humanized) (antibody, V domains shown) VH: QVQLVQSGAELKKPGASVKMSCKASGYTFTSYWIHWVKQRPGQGLEWIGVIDPSDSYTRYNQKFKGRATLTVDTSASTAYMQLSSLTSEDSAVYYCTTWEVDYWGQGTTVTVSS VL: DVVMTQSPLSLPVTLGQPASISCRSSQSLVHSDGNTYLHWYLQKPGQSPQLLIYKVSNRFSGVPDRFSGSGSGTDFTLKISRVEAEDVGVYFCSQSTHVPWTFGGGTKVEIK | 1.83 | 1.45 fold of HT13
14 | Cis-mAb HT16 (humanized) (antibody, V domains shown) VH: QVQLVQSGAEVKKPGASVKVSCKASGYTFTSYWIHWVRQRPGQGLEWIGVIDPSDSYTRYNQKFKGRVTLTVDTSASTAYMELSSLRSEDTAVYYCTTWEVDYWGQGTLVTVSS VL: DVVMTQSPLSLPVTLGQPASISCRSSQSLVHSDGNTYLNWYLQKPGQSPQLLIYKVSNRFSGVPDRFSGSGSGTDFTLKISRVEAEDVGVYFCSQSTHVPWTFGGGTKVEIK | 3.26 | 2.59 fold of HT13
15 | Cis-mAb HT17 (humanized) (antibody, V domains shown) VH: QVQLVQSGAEVKKPGASVKVSCKASGYTFTSYWIHWVRQRPGQGLEWIGVIDPSDSYTRYNQKFKGRVTITRDTSASTAYMELSSLRSEDTAVYYCTTWEVDYWGQGTLVTVSS VL: DVVMTQSPLSLPVTLGQPASISCRSSQSLVHSDGNTYLNWYLQKPGQSPQLLIYKVSNRFSGVPDRFSGSGSGTDFTLKISRVEAEDVGVYFCSQSTHVPWTFGGGTKVEIK | 4940 | 3920 fold of HT13
16 | Cis-mAb HT18 (humanized) (antibody, V domains shown) VH: QVQLVQSGAEVKKPGSSVKVSCKASGYTFTSYWIHWVRQAPGQGLEWMGVIDPSDSYTRYNQKFKGRVTITRDTSMSTAYTELSSLRSEDTAVYYCTTWEVDYWGQGTLVTVSS VL: DIQMTQSPSTLSASVGDRVTITCRSSQSLVHSDGNTYLHWYQQKPGKAPKLLIYKVSNRFSGVPSRFSGSGSGTEFTLTISSLQPDDFATYYCSQSTHVPWTFGQGTKLEIK | 1.91 | 1.52 fold of HT13
17 | Cis-mAb HT2 (humanized) (antibody, V domains shown) VH: QVQLVQSGAEVKKPGASVKMSCKASGYTFTSYWIHWVKQRPGQGLEWIGVIDPSDSYTRYNQKFKGRATLTVDTSASTAYMELSSLRSEDTAVYYCTTWEVDYWGQGTLVTVSS VL: DVVMTQSPLSLPVTLGQPASISCRSSQSLVHSDGNTYLHWYLQKPGQSPQLLIYKVSNRFSGVPDRFSGSGSGTDFTLKISRVEAEDVGVYFCSQSTHVPWTFGGGTKVEIK | 1.62 | 1.29 fold of HT13
18 | Cis-mAb HT3 (humanized) (antibody, V domains shown) VH: QVQLVQSGAEVKKPGASVKVSCKASGYTFTSYWIHWVRQRPGQGLEWIGVIDPSDSYTRYNQKFKGRVTLTVDTSASTAYMELSSLRSEDTAVYYCTTWEVDYWGQGTLVTVSS VL: DVVMTQSPLSLPVTLGQPASISCRSSQSLVHSDGNTYLHWYLQKPGQSPQLLIYKVSNRFSGVPDRFSGSGSGTDFTLKISRVEAEDVGVYFCSQSTHVPWTFGGGTKVEIK | 3.51 | 2.79 fold of HT13
